# Experiments:
# [1] = molecular target: TGBp1-cYFP (cowpea mild mottle virus triple gene block protein 1 fused to the C-terminal half of YFP) (cowpea mild mottle virus (isolate CPMMV_AH_SZ)); experiment: split reporter (BiFC, NanoBiT); BiFC: nYFP and cYFP fusions co-expressed by agroinfiltration in N. benthamiana leaves; YFP signal by confocal microscopy 48 h after infiltration; mean intensity of whole images by ImageJ
# [2] = molecular target: TGBp1-cYFP (cowpea mild mottle virus triple gene block protein 1 fused to the C-terminal half of YFP) (cowpea mild mottle virus (isolate CPMMV_AH_SZ)); experiment: split reporter (BiFC, NanoBiT); BiFC of the TGBp1 and TGBp3 YFP halves with TGBp2-Flag co-expressed in N. benthamiana leaves; confocal microscopy 48 h after infiltration; mean intensity of whole images by ImageJ
substance,measurement,setting,value
TGBp3-nYFP (cowpea mild mottle virus triple gene block protein 3 fused to the N-terminal half of YFP) (natural protein),"mean fluorescence intensity of the BiFC signal, without TGBp2-Flag",[1],75.7
same,"mean fluorescence intensity of the BiFC signal, with TGBp2-Flag co-expressed",[2],95.9

# From paper PMC9051516
